Measured values from the RNAGym collection of RNA variant scans (doi:10.7554/elife.80360).

B1: Hammerhead Ribozyme (parent)
chain: ACCGGAUGUGCUUUCCGGUCUGAUGAGUCCGUGAGGACGAAACAG

Variants of: B1
Test: self-cleavage, relative activity (ratio to wild type); higher = more cleavage; co-transcriptional

Compared with ACCGGAUGUGCUUUCCGGUCUUAUGAGUCCGUCAGGACGAAACAG [G22U G33C], ACCGGAUGUGCUUUCCGCUCUGAUGAGUCCGUGAGAACGAAACAG [G18C G36A] is lower in self-cleavage: 0.363 for the first, 0.347 for the second.

Going from ACCGGAUGUGCUUUCCGGUCUGAUGACUCCGUGGGGACGAAACAG [G27C A34G] to ACCGGAUGUGCUUUCCGGUAAGAUGAGUCCGUGAGGACGAAACAG [C20A U21A], the self-cleavage falls from 0.653 to 0.228.

Compared with ACCGGAUGUGCUUUCCGGUCUGAUGAGUCCGUAAGGACAAAACAG [G33A G39A], ACCCGAUGUGCCUUCCGGUCUGAUGAGUCCGUGAGGACGAAACAG [G4C U12C] is higher in self-cleavage: 0.429 for the first, 0.513 for the second.

Going from AGCGGAUGUGCUUUCCGGUCUGAUGAGUACGUGAGGACGAAACAG [C2G C29A] to ACCGGAUGUGCUUUCCGGUGUGAUCAGUCCGUGAGGACGAAACAG [C20G G25C], the self-cleavage rises from 0.311 to 0.503.

Going from ACCGGAUGUGAUUUCCGGUCUGAUGAGUCCGUGAGGAUGAAACAG [C11A C38U] to ACAGGAUGUGCUUUCCGGUCUGAUGAGUCAGUGAGGACGAAACAG [C3A C30A], the self-cleavage falls from 1.1 to 0.557.

Going from CCCGGAUGUGCUUUCCGGUCUGAUGAGUCCGUGAGGACCAAACAG [A1C G39C] to ACCCGAUGUCCUUUCCGGUCUGAUGAGUCCGUGAGGACGAAACAG [G4C G10C], the self-cleavage rises from 0.344 to 0.436.

First: ACCGGAUGUGCUUUCCGCUCUGAUGUGUCCGUGAGGACGAAACAG [G18C A26U]
Second: ACCGGAUGUGCUUUCCGGUCUGAUGAGUCCGUGAUGCCGAAACAG [G35U A37C]
The self-cleavage of the first is lower: 0.334 for the first, 0.548 for the second.

Compared with ACCGGAUGUGCUUUCUGGUCUGAUGAGUCCGUGAGGACGAAUCAG [C16U A42U], ACCGAAUGUGCUUUCCGGUCUGAUGAGUCCGUGAGGCCGAAACAG [G5A A37C] is higher in self-cleavage: 0.273 for the first, 0.542 for the second.

First: ACCGGAACUGCUUUCCGGUCUGAUGAGUCCGUGAGGACGAAACAG [U7A G8C]
Second: ACCGGGUGUGCUUUCCGGUCUGAUGAGUCCGUGAGGACGUAACAG [A6G A40U]
The self-cleavage of the first is higher: 1.21 for the first, 0.247 for the second.

First: ACCGGAUGUGCUUUCCUGUCUGAUGAGUCCGUGUGGACGAAACAG [G17U A34U]
Second: ACCGGAUGGGCUUUCCGGUUUGAUGAGUCCGUGAGGACGAAACAG [U9G C20U]
The self-cleavage of the first is higher: 0.531 for the first, 0.468 for the second.

Going from AUCGGAUAUGCUUUCCGGUCUGAUGAGUCCGUGAGGACGAAACAG [C2U G8A] to ACCGGAUGUCCUUUCCGGUCUGAUGAGUCCGUGAGGUCGAAACAG [G10C A37U], the self-cleavage falls from 0.998 to 0.576.

Compared with ACAGGAUGUGCUUUCCGGUCGGAUGAGUCCGUGAGGACGAAACAG [C3A U21G], ACCGGAUGUGCUUUCCGGUCUGAUGAGUCCGUGAGAACGACACAG [G36A A41C] is higher in self-cleavage: 0.358 for the first, 0.382 for the second.

First: ACCGGAUAUGCUUUCCGGUCUGAUGGGUCCGUGAGGACGAAACAG [G8A A26G]
Second: ACCGGAUGUGCUUUCCGGUCUGAUGAGUCCGUGCGUACGAAACAG [A34C G36U]
The self-cleavage of the first is lower: 0.371 for the first, 0.437 for the second.

Compared with ACCGGAUGUGCUUUCCGGUCUGAUGACUCCGUGAGUACGAAACAG [G27C G36U], ACCGGAUGUGCUUUCUUGUCUGAUGAGUCCGUGAGGACGAAACAG [C16U G17U] is higher in self-cleavage: 0.371 for the first, 0.714 for the second.

Compared with ACCGGAUGUGCUCUCCGGUCUGAUGAGACCGUGAGGACGAAACAG [U13C U28A], ACGGGAUGUGCUUUCCGGUCUGAUCAGUCCGUGAGGACGAAACAG [C3G G25C] is lower in self-cleavage: 0.739 for the first, 0.33 for the second.

Going from ACCGGAUGUGCUUUCGGGUCUGAUGAGUCCGUGGGGACGAAACAG [C16G A34G] to ACCGGAUGUGCUUUCCGGUGUGAUGAGUCCGUGAGGACGAAACUG [C20G A44U], the self-cleavage falls from 0.655 to 0.309.

Going from ACCGGAUGUGCUCUCCGGUCUGUUGAGUCCGUGAGGACGAAACAG [U13C A23U] to CCCGGAUGUGCUUUCCGGUCUGAUGAGUCCGUGAGGACGGAACAG [A1C A40G], the self-cleavage rises from 0.237 to 0.298.

Going from ACCGGAUGUGCUUUCCGGGCUGAUGAGUCCGUGAGGACGAAACAG [U19G] to ACCGGAUGUGCUUUCCGUACUGAUGAGUCCGUGAGGACGAAACAG [G18U U19A], the self-cleavage falls from 0.437 to 0.34.

Compared with ACCGGAUGUGCUUUCCGGUCUGAUGAGUCCGUGAGGAGGAAUCAG [C38G A42U], ACCGGAUGUGCUUUCCGGUCUGAUGAGCCCGUGAUGACGAAACAG [U28C G35U] is higher in self-cleavage: 0.354 for the first, 0.431 for the second.

First: ACCGGAUGUGCUUUCCGAUCUGAAGAGUCCGUGAGGACGAAACAG [G18A U24A]
Second: ACCGGAUGUGCUUUCCGAUCUGACGAGUCCGUGAGGACGAAACAG [G18A U24C]
The self-cleavage of the first is lower: 0.748 for the first, 0.757 for the second.

Going from ACCGGAUAUGCUUUCCGGUCUGAUGAGUCCGUGAGGACGAAACAA [G8A G45A] to ACCGGAUGUGCGUUCCGGUCUCAUGAGUCCGUGAGGACGAAACAG [U12G G22C], the self-cleavage falls from 0.704 to 0.326.

Compared with ACCGGAUGUGCUUUCCGGUAUGAUGAGUCCGUGAGGACGAAAUAG [C20A C43U], ACCAGAUGUGCUUUCCGGUAUGAUGAGUCCGUGAGGACGAAACAG [G4A C20A] is higher in self-cleavage: 0.342 for the first, 0.402 for the second.

Going from ACCGGAUGUGCUUUCCGGUCUGAUGAGUGCGUGAGGACGAAACAA [C29G G45A] to AGCCGAUGUGCUUUCCGGUCUGAUGAGUCCGUGAGGACGAAACAG [C2G G4C], the self-cleavage falls from 0.359 to 0.233.

Going from ACCAGAUCUGCUUUCCGGUCUGAUGAGUCCGUGAGGACGAAACAG [G4A G8C] to ACCGGAUGUGCUUUUCGGUCGGAUGAGUCCGUGAGGACGAAACAG [C15U U21G], the self-cleavage rises from 0.46 to 0.859.

Going from ACCGCAUGUGCUUUCCGGUCUGAUGAGUCCGUGAGGACGAAACUG [G5C A44U] to ACCGGAUGUGCUUUCCGGUCUGAUGAGUCCGUAUGGACGAAACAG [G33A A34U], the self-cleavage rises from 0.358 to 0.873.

First: ACCGGCUGUGCAUUCCGGUCUGAUGAGUCCGUGAGGACGAAACAG [A6C U12A]
Second: ACCGGAUGUGCUCUCCGGUCUGAUGAGUCCGUGAGGAUGAAACAG [U13C C38U]
The self-cleavage of the first is lower: 0.826 for the first, 1.11 for the second.

Compared with ACCGGAUGUGCCUUCCGGUCUGAUGAGUUCGUGAGGACGAAACAG [U12C C29U], ACCGGAUGUUCUUUCCGGUCUGAUGAGUCCGUGAGGACGAAACAU [G10U G45U] is higher in self-cleavage: 0.912 for the first, 0.926 for the second.

First: ACCGGAUGUGCUUUCCGGUCUGAUGAGUCCGCGAGGACGGAACAG [U32C A40G]
Second: ACCGCAUGUGCUUUCCGGUCUGAUGAGUCCGUGAGGCCGAAACAG [G5C A37C]
The self-cleavage of the first is higher: 0.406 for the first, 0.259 for the second.
